Data published in patent US20060264369.

Target: von Willebrand factor full length (Homo sapiens) (UniProt P04275)
Test: filter
Settings: 3'-idT

“CGUGCAGUGCCGGCCGTGCGGTGCCUCCGUCACG [ARC1532]” was tested, and the Kd (2'-OMe/deoxy composite, single PS, internal PEG, 19.3% bound at 100 nM vWF) was 2.6 nM.

“GCGUGCAGUGCCGGCCGTGCGGTGCCUCCGUCACGC [ARC1528]” gave a Kd (2'-OMe/deoxy composite, single PS, internal PEG, 10.2% bound at 100 nM vWF) of 4.2 nM.

“GGCGTGCAGTGCCGGCCGTGCGGTGCCTCCGTCACGCC [ARC1029]” showed a Kd (internal PEG spacer after GGCGTGCAGTGCC, DPBS, 0.1 mg/mL BSA, RT) of 1.4 nM.

Sequence “CGUGCAGUGCCGGCCGTGCGGTGCCUCCGUCACG [ARC1531]” has a Kd (2'-OMe/deoxy composite, single PS, internal PEG, 20.0% bound at 100 nM vWF) of 1.5 nM.

In the case of “GCGTGCAGTGCCTAGGCCGTGCGGTGCCTCCGTCACGCC [ARC1028]”, the Kd (internal PEG spacer after GCGTGCAGTGCCT, DPBS, 0.1 mg/mL BSA, RT) is reported as 1.1 nM.

In the case of “CGGCCGTGCGGTGCCUCCGUCACGUGCAGUGCCG [ARC1533]”, the Kd (2'-OMe/deoxy composite, single PS, internal PEG, 31.7% bound at 100 nM vWF) is reported as 4 nM.

“GCGUGCAGUGCCGGCCGTGCGGTGCCUCCGUCACGC [ARC1527]” was tested, and the Kd (2'-OMe/deoxy composite, single PS, internal PEG, 14.1% bound at 100 nM vWF) was 3.4 nM.
